Experimental data from article PMC6933771.

Target: human prothrombin (human)

## staphylocoagulase (natural protein)
  amidolytic activity of the SCG-PT complex on the chromogenic thrombin substrate S-2238, specific activity relative to human thrombin (9.1 IU/nmol): 5.5 IU/nmol
  clotting activity of the SCG-PT complex in human plasma, specific activity relative to human thrombin: 4.2 IU/nmol
  clotting activity of the SCG-PT complex on purified human fibrinogen (3.0 g/L), specific activity relative to human thrombin: 3.6 IU/nmol
